Measurements reported in patent US20170210809A1 (DYAX, published 2017).
Blank lines part the entries; values can stand above or below the binder they belong to.

Experiments:
[1] = target: T1, ErbB3 (HER3) on tumor cells (human, UniProt P21860 20-1342); assay: cell-based or functional assay
T1 construct: whole, on cells; Endogenous receptor on human tumor cell lines

[2] = target: T1, ErbB3 (HER3) on tumor cells; assay: FACS on MCF7 cells (n = 1), apparent Kd
[3] = target: T1, ErbB3 (HER3) on tumor cells; assay: FACS on ADRr cells (n = 3), apparent Kd
Protocol: (§1) 1×10⁵ MCF7 cells and 1×10⁵ ADRr cells are incubated at room temperature for 2 hours with the BBA at 2 uM, followed by 12 subsequent 3-fold dilutions. Then using goat anti-HSA-Alexa647 conjugated antibody as the detection antibody, cells are incubated on ice for 40 minutes. Cell binding dissociation constants (measures of binding affinities) of the BBAs on MCF7 and ADRr cells are assessed by FACS and apparent dissociation constants are determined for each BBA. The following results were obtained (also see FIGS. 12a and 12b): […]

[4] = target: T1, ErbB3 (HER3) on tumor cells; assay: FACS binding to ADRr cells, y axis 'GaH-A647 Mean', x axis Ab [nM] (log)
[5] = target: T2, IGF-1R (insulin-like growth factor 1 receptor) on tumor cells (human, UniProt P08069 31-1367); assay: FACS on ADRr and MCF7 cells
T2 construct: whole, on cells; Endogenous receptor on human tumor cell lines
T2 sequence (P08069 31-1367): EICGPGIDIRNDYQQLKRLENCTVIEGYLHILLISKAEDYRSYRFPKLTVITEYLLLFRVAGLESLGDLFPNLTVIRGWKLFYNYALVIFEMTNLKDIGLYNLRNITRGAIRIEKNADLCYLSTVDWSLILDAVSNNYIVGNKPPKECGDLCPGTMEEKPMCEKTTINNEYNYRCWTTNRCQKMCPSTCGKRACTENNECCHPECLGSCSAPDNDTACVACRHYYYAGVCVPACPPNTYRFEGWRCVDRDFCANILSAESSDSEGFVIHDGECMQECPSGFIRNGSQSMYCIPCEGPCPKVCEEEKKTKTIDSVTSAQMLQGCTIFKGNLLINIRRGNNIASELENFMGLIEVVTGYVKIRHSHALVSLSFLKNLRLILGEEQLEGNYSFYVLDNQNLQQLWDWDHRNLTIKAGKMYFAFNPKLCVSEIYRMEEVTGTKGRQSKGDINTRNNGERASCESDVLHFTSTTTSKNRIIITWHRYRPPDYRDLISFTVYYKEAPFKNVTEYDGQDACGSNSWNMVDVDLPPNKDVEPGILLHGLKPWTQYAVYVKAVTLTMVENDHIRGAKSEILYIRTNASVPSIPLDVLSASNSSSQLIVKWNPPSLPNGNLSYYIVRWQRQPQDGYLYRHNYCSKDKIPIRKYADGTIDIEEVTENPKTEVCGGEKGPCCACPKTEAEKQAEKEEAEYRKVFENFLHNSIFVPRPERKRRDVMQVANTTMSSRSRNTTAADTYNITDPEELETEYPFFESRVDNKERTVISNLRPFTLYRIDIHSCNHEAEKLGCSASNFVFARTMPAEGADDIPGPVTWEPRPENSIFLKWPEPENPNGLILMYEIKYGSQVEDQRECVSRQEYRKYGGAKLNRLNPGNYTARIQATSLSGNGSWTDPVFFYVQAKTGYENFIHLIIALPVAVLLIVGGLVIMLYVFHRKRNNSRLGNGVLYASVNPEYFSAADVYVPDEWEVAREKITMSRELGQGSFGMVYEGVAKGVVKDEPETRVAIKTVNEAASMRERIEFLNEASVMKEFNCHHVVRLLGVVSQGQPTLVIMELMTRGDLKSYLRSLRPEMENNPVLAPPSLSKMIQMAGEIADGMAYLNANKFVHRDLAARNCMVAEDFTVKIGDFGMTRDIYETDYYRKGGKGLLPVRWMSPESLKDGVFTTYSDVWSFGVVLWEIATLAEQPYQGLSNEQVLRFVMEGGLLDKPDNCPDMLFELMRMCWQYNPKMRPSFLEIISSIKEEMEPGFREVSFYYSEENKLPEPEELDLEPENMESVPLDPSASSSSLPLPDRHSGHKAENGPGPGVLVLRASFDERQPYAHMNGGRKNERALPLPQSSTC

[6] = target: T1, ErbB3 (HER3) on tumor cells; assay: FACS on ADRr and MCF7 cells
[7] = target: IGF-1R and ErbB3 together on tumor cells (MCF7, ADRr, BXPC3) (human) (UniProt P08069); assay: FACS on MCF7 cells (n = 1), apparent Kd
Chain of IGF-1R and ErbB3 together on tumor cells (MCF7, ADRr, BXPC3) (human) (P08069 31-1367, chain 1 of 2): as the sequence (P08069 31-1367) above
Chain of IGF-1R and ErbB3 together on tumor cells (MCF7, ADRr, BXPC3) (human) (P21860 20-1342, chain 2 of 2, further chain): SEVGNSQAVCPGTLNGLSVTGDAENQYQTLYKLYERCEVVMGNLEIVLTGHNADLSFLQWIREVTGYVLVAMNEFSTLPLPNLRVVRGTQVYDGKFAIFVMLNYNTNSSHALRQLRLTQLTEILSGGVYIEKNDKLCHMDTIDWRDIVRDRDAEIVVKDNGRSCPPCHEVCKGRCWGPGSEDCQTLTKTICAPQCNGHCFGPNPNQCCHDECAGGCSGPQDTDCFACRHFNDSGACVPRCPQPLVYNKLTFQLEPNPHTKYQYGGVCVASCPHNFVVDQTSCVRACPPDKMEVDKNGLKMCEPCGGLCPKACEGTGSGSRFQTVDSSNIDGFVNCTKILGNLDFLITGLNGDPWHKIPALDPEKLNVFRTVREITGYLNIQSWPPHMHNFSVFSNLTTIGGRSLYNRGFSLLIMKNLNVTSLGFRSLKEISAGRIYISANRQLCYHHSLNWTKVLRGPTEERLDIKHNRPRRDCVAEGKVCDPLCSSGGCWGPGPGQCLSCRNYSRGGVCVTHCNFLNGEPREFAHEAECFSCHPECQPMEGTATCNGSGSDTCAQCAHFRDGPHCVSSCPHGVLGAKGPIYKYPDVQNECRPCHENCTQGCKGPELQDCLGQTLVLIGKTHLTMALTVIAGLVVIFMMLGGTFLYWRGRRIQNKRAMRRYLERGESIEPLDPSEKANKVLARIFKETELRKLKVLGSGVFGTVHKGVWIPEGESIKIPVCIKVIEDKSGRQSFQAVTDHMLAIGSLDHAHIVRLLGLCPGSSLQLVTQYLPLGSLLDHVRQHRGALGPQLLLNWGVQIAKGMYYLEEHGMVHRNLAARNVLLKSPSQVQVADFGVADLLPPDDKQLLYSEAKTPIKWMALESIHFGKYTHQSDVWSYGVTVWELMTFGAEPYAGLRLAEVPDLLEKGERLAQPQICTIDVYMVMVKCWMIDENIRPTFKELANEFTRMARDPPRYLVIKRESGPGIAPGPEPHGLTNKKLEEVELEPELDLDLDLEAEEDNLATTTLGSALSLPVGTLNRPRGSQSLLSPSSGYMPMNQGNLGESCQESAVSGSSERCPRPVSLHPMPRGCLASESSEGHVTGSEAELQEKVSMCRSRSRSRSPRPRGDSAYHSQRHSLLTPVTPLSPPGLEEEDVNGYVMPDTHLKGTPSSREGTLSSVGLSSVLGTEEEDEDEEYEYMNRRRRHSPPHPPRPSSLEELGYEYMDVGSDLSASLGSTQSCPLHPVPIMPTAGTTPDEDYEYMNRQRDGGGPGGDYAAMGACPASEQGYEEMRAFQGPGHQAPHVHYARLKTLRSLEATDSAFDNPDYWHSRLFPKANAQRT

[8] = target: IGF-1R and ErbB3 together on tumor cells (MCF7, ADRr, BXPC3) (human) (UniProt P08069); assay: FACS on ADRr cells (n = 3), apparent Kd
[9] = target: T2, IGF-1R (insulin-like growth factor 1 …); assay: cell-based or functional assay
[10] = target: T2, IGF-1R (insulin-like growth factor 1 …); assay: FACS on MCF7 cells (n = 1), apparent Kd
[11] = target: T2, IGF-1R (insulin-like growth factor 1 …); assay: FACS on ADRr cells (n = 3), apparent Kd
Protocol: as §1

T1 sequence (P21860 20-1342): as the sequence (P21860 20-1342, chain 2 of 2, further chain) above

- Ki, inhibition of BTC-induced pErbB3 formation (ELISA, ADRr cells) [1]: 1.1 nM
- Ki, inhibition of HRG-induced pErbB3 formation (ELISA, ADRr cells) [1]: 0.1 nM
B1: Ab #6 (MM-121) (antibody, INN chains, looked up, V domains shown)
VH: EVQLLESGGGLVQPGGSLRLSCAASGFTFSHYVMAWVRQAPGKGLEWVSSISSSGGWTLYADSVKGRFTISRDNSKNTLYLQMNSLRAEDTAVYYCTRGLKMATIFDYWGQGTLVTVSS
VL: QSALTQPASVSGSPGQSITISCTGTSSDVGSYNVVSWYQQHPGKAPKLIIYEVSQRPSGVSNRFSGSKSGNTASLTISGLQTEDEADYYCCSYAGSSIFVIFGGGTKVTVL

- binding result [5]: binds
- binding result [6]: binds
- Kd [7]: 0.6 nM
- Kd [8]: 0.3 nM
B5: ILE-12 (bispecific antibody, human IgG2, kappa)
heavy: EVQLLESGGGLVQPGGSLRLSCAASGFTFSVYPMHWVRQAPGKGLEWVSSISSSGGATRYADSVKGRFTISRDNSKNTLYLQMNSLRAEDTAVYYCAKDFYDILTGNAFDIWGQGTMVTVSSASTKGPSVFPLAPCSRSTSESTAALGCLVKDYFPEPVTVSWNSGALTSGVHTFPAVLQSSGLYSLSSVVTVPSSNFGTQTYTCNVDHKPSNTKVDKTVERKCCVECPPCPAPPVAGPSVFLFPPKPKDTLMISRTPEVTCVVVDVSHEDPEVQFNWYVDGVEVHNAKTKPREEQFNSTFRVVSVLTVVHQDWLNGKEYKCKVSNKGLPAPIEKTISKTKGQPREPQVYTLPPSREEMTKNQVSLTCLVKGFYPSDIAVEWESNGQPENNYKTTPPMLDSDGSFFLYSKLTVDKSRWQQGNVFSCSVMHEALHNHYTQKSLSLSPGKGGGGSGGGGSGGGGSLQEVQLLESGGGLVQPGGSLRLSCAASGFTFSVYDMYWVRQAPGKGLEWVSYIYSSGGDTDYADSVKGRFTISRDNSKNTLYLQMNSLRAEDTATYYCARASTNSIYDAMDVWGQGTTVTVSSASTGGGGSGGGGSGGGGSDIQMTQSPSSVSASVGDRVTITCRASQDITNWLAWYQQKPGKAPTLLIYDASTLQSGVPSRFSGSGSGTDFTLTISSLQPEDFATYFCQQANGFPLTFGGGTKVEIK
light: DIQMTQSPSSFSASTGDRVTITCRASQGISSYLAWYQQKPGKAPKLLIYAASTLQSGVPSRFSGSGSGTDFTLTISSLQPEDSATYYCQQYFTFPLTFGGGTKVEIKRTVAAPSVFIFPPSDEQLKSGTASVVCLLNNFYPREAKVQWKVDNALQSGNSQESVTEQDSKDSTYSLSSTLTLSKADYEKHKVYACEVTHQGLSSPVTKSFNRGEC
notes: IgG-linked BBA, designed to be functionally dimeric; the numbers of ILE-12 stand on the line that begins with ILE-13; also called Bs15F3 huIgG2

- Kd [10]: 5.6 nM
- Kd [11]: 5.1 nM
B7: IgG version of SEQ ID NO: 1 (antibody, V domains shown)
VH: EVQLLESGGGLVQPGGSLRLSCAASGFTFSVYPMHWVRQAPGKGLEWVSSISSSGGATRYADSVKGRFTISRDNSKNTLYLQMNSLRAEDTAVYYCAKDFYDILTGNAFDIWGQGTMVTVSS
VL: DIQMTQSPSSFSASTGDRVTITCRASQGISSYLAWYQQKPGKAPKLLIYAASTLQSGVPSRFSGSGSGTDFTLTISSLQPEDSATYYCQQYFTFPLTFGGGTKVEIKR

The remaining lines, values behind:

B2: IgG version of SEQ ID NO: 33 (antibody, V domains shown)
VH: EVQLLESGGGLVQPGGSLRLSCAASGFTFSAYNMRWVRQAPGKGLEWVSVIYPSGGATRYADSVKGRFTISRDNSKNTLYLQMNSLRAEDTAVYYCARGYYYYGMDVWGQGTLVTVSS
VL: QSVLTQPPSASGTPGQRVTISCSGSDSNIGRNYIYWYQQFPGTAPKLLIYRNNQRPSGVPDRISGSKSGTSASLAISGLRSEDEAEYHCGTWDDSLSGPVFGGGTKLTVLG
- Kd [2]: 0.9 nM
- Kd [3]: 1.2 nM

B3: IgG version of SEQ ID NO: 44 (antibody, V domains shown)
VH: EVQLLESGGGLVQPGGSLRLSCAASGFTFSVYDMYWVRQAPGKGLEWVSYIYSSGGDTDYADSVKGRFTISRDNSKNTLYLQMNSLRAEDTATYYCARASTNSIYDAMDVWGQGTTVTVSS
VL: DIQMTQSPSSVSASVGDRVTITCRASQDITNWLAWYQQKPGKAPTLLIYDASTLQSGVPSRFSGSGSGTDFTLTISSLQPEDFATYFCQQANGFPLTFGGGTKVEIK
- EC50 (read off the curve) [4]: ~0.3 nM
- Kd [2]: 0.04 nM
- Kd [3]: 0.4 nM

B4: ILE-10 (bispecific antibody, human IgG2, kappa)
heavy: EVQLLESGGGLVQPGGSLRLSCAASGFTFSVYPMHWVRQAPGKGLEWVSSISSSGGATRYADSVKGRFTISRDNSKNTLYLQMNSLRAEDTAVYYCAKDFYDILTGNAFDIWGQGTMVTVSSASTKGPSVFPLAPCSRSTSESTAALGCLVKDYFPEPVTVSWNSGALTSGVHTFPAVLQSSGLYSLSSVVTVPSSNFGTQTYTCNVDHKPSNTKVDKTVERKCCVECPPCPAPPVAGPSVFLFPPKPKDTLMISRTPEVTCVVVDVSHEDPEVQFNWYVDGVEVHNAKTKPREEQFNSTFRVVSVLTVVHQDWLNGKEYKCKVSNKGLPAPIEKTISKTKGQPREPQVYTLPPSREEMTKNQVSLTCLVKGFYPSDIAVEWESNGQPENNYKTTPPMLDSDGSFFLYSKLTVDKSRWQQGNVFSCSVMHEALHNHYTQKSLSLSPGKGGGGSGGGGSGGGGSLQEVQLLESGGGLVQPGGSLRLSCAASGFTFSAYNMRWVRQAPGKGLEWVSVIYPSGGATRYADSVKGRFTISRDNSKNTLYLQMNSLRAEDTAVYYCARGYYYYGMDVWGQGTLVTVSSASTGGGGSGGGGSGGGGSQSVLTQPPSASGTPGQRVTISCSGSDSNIGRNYIYWYQQFPGTAPKLLIYRNNQRPSGVPDRISGSKSGTSASLAISGLRSEDEAEYHCGTWDDSLSGPVFGGGTKLTVLS
light: DIQMTQSPSSFSASTGDRVTITCRASQGISSYLAWYQQKPGKAPKLLIYAASTLQSGVPSRFSGSGSGTDFTLTISSLQPEDSATYYCQQYFTFPLTFGGGTKVEIKRTVAAPSVFIFPPSDEQLKSGTASVVCLLNNFYPREAKVQWKVDNALQSGNSQESVTEQDSKDSTYSLSSTLTLSKADYEKHKVYACEVTHQGLSSPVTKSFNRGEC
notes: IgG-linked BBA, designed to be functionally dimeric; the numbers of ILE-10 stand on the line that begins with ILE-11; also called Bs14F3 huIgG2
- binding result [5]: binds
- binding result [6]: binds
- Kd [7]: 4.5 nM
- Kd [8]: 7.1 nM

B6: AB5-7 IgG2 (antibody, V domains shown)
VH: EVQLLESGGGLVQPGGSLRLSCAASGFTFSVYPMHWVRQAPGKGLEWVSSISSSGGATRYADSVKGRFTISRDNSKNTLYLQMNSLRAEDTAVYYCAKDFYDILTGNAFDIWGQGTMVTVSS
VL: DIQMTQSPSSFSASTGDRVTITCRASQGISSYLAWYQQKPGKAPKLLIYAASTLQSGVPSRFSGSGSGTDFTLTISSLQPEDSATYYCQQYFTFPLTFGGGTKVEIKR
- Ki, inhibition of IGF2-induced pAKT formation (ELISA, MCF7 cells) [9]: 0.7 nM
